Where two headings read alike, the source gives them in different places.
B1: GST-mGluR1a-CT-FL(K841-L1199) (domain or fragment, rat, UniProt P23385 841-1199, looked up)
chain: KPERNVRSAFTTSDVVRMHVGDGKLPCRSNTFLNIFRRKKPGAGNANSNGKSVSWSEPGGRQAPKGQHVWQRLSVHVKTNETACNQTAVIKPLTKSYQGSGKSLTFSDASTKTLYNVEEEDNTPSAHFSPPSSPSMVVHRRGPPVATTPPLPPHLTAEETPLFLADSVIPKGLPPPLPQQQPQQPPPQQPPQQPKSLMDQLQGVVTNFGSGIPDFHAVLAGPGTPGNSLRSLYPPPPPPQHLQMLPLHLSTFQEESISPPGEDIDDDSERFKLLQEFVYEREGNTEEDELEEEEDLPTASKLTPEDSPALTPPSPFRDSVASGSSVPSSPVSESVLCTPPNVTYASVILRDYKQSSSTL
B2: purified mGluR1a-CT (domain or fragment, rat, UniProt P23385 841-1199, looked up)
chain: B1 chain
B3: GST-mGluR1a-CT1(K841-T1000) (domain or fragment, rat, UniProt P23385 841-1000, looked up)
chain: KPERNVRSAFTTSDVVRMHVGDGKLPCRSNTFLNIFRRKKPGAGNANSNGKSVSWSEPGGRQAPKGQHVWQRLSVHVKTNETACNQTAVIKPLTKSYQGSGKSLTFSDASTKTLYNVEEEDNTPSAHFSPPSSPSMVVHRRGPPVATTPPLPPHLTAEET

Tests used:
Experiment in all cases: pull-down
[1] = molecular target: T1, His-tagged CaMKIIα-FL(M1-H478) (UniProt P11275 1-478)
[2] = molecular target: GST-CaMKIIα-FL(M1-H478) (UniProt P11275 1-478)
[3] = molecular target: T1, His-tagged CaMKIIα-FL(M1-H478); remark: listed apart in the source
[4] = molecular target: T286-autophosphorylated CaMKIIα (UniProt P11275 1-478, phosphothreonine at 286 (autophosphorylation))
T286-autophosphorylated CaMKIIα, sequence (P11275 whole entry): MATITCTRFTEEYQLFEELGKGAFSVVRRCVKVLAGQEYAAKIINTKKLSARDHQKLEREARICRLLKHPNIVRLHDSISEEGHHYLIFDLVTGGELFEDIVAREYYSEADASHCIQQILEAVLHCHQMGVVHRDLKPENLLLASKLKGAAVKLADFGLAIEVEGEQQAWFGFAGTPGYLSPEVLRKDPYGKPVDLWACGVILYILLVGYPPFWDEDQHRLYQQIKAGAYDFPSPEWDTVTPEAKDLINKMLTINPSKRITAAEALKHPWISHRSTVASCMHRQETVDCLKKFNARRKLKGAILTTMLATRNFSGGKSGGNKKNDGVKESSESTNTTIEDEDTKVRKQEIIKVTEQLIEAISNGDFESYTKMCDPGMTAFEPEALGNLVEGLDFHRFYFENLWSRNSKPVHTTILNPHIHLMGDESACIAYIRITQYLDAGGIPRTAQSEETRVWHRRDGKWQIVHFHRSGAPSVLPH

T1 sequence (P11275 whole entry): as above
GST-CaMKIIα-FL(M1-H478), sequence (P11275 whole entry): as above

Binder | binding result [1] | binding result [3] | further results
B1 | binds | – | –
B2 | – | – | binding result [2]: binds
KLPCRSNTFLNIFR [mGluR1a-i (14-amino acid interfering peptide)] | – | binds | –
B3 | – | binds | binding result [4]: binds
KPERNVRSAFTTSDVVRMHVGDGKLPCRSNTFLNIFRRKKPGAGN (domain or fragment, rat, UniProt P23385 841-885, looked up) [GST-mGluR1a-CT1a(K841-N885)] | binds | – | –

Source: publication PMC3711744 (The Journal of neuroscience : the official journal of the …, 2013)
